# Data from patent US20160046684A1, “Methods and compositions for treatment of PTP1B-related diseases” (BROWN UNIVERSITY, priority 2014, published 2016).
# Numbering of substitutions follows the chain as printed. Names may count otherwise. “Also recorded” adds a separate entry of the source.
# B1: PTP1BYAYA: mutant of PTP1B1-301 having point mutations at Y152 and Y153 (Y152A/Y153A) within the L11 loop (protein)
# chain: MEMEKEFEQIDKSGSWAAIYQDIRHEASDFPCRVAKLPKNKNRNRYRDVSPFDHSRIKLHQEDNDYINASLIKMEEAQRSYILTQGPLPNTCGHFWEMVWEQKSRGVVMLNRVMEKGSLKCAQYWPQKEEKEMIFEDTNLKLTLISEDIKSAATVRQLELENLTTQETREILHFHYTTWPDFGVPESPASFLNFLFKVRESGSLSPEHGPVVVHCSAGIGRSGTFCLADTCLLLMDKRKDPSSVDIKKVLLEMRKFRMGLIQTADQLRFSYLAVIEGAKFIMGDSSVQDQWKELSHEDLEP
# modifications: The sequence was designed and synthesized
# notes: mutant of PTP1B1-301 having point mutations at Y152 and Y153 (Y152A/Y153A) within the L11 loop
# B2: PTP1B1-284/Δ7: truncated PTP1B, residues 1-284, lacking the α7 helix (SEQ ID NO: 3) (protein)
# chain: MEMEKEFEQIDKSGSWAAIYQDIRHEASDFPCRVAKLPKNKNRNRYRDVSPFDHSRIKLHQEDNDYINASLIKMEEAQRSYILTQGPLPNTCGHFWEMVWEQKSRGVVMLNRVMEKGSLKCAQYWPQKEEKEMIFEDTNLKLTLISEDIKSYYTVRQLELENLTTQETREILHFHYTTWPDFGVPESPASFLNFLFKVRESGSLSPEHGPVVVHCSAGIGRSGTFCLADTCLLLMDKRKDPSSVDIKKVLLEMRKFRMGLIQTADQLRFSYLAVIEGAKFIMGD
# modifications: The sequence was designed and synthesized
# B3: Wild-type PTP1B1-301: PTP1B catalytic domain, amino acid residues 1-301 (SEQ ID NO: 2) (protein)
# chain: B1 chain with A152Y, A153Y
# modifications: The sequence was designed and synthesized
# B4: PTP1BD298A: PTP1B1-301 mutant with point mutation in the α7 helix (protein, UniProt P18031 1-301, looked up, variant D298A)
# chain: B1 chain with A152Y, A153Y, D298A
# B5: PTP1BS190A: PTP1B1-301 mutant with mutation in the α3 helix (protein, UniProt P18031 1-301, looked up, variant S190A)
# chain: B1 chain with A152Y, A153Y, S190A
# B6: PTP1BW291A: PTP1B1-301 mutant with point mutation in the α7 helix (protein, UniProt P18031 1-301, looked up, variant W291A)
# chain: B1 chain with A152Y, A153Y, W291A
# B7: PTP1BF194A: PTP1B1-301 mutant with mutation in the α3 helix (protein, UniProt P18031 1-301, looked up, fragment F194A)
# chain: B1 chain with A152Y, A153Y, F194A
# B8: PTP1BF196A: PTP1B1-301 mutant with mutation in the α3 helix (protein, UniProt P18031 1-301, looked up, variant F196A)
# chain: B1 chain with A152Y, A153Y, F196A
# B9: PTP1BS295A: PTP1B1-301 mutant with point mutation in the α7 helix (protein, UniProt P18031 1-301, looked up, variant S295A)
# chain: B1 chain with A152Y, A153Y, S295A
# B10: PTP1BG283P: PTP1B1-301 mutant with point mutation in the α7 helix (protein, UniProt P18031 1-301, looked up, variant G283P)
# chain: B1 chain with A152Y, A153Y, G283P
# B11: PTP1BL294A: PTP1B1-301 mutant with point mutation in the α7 helix (protein, UniProt P18031 1-301, looked up, variant L294A)
# chain: B1 chain with A152Y, A153Y, L294A
# B12: PTP1BK292A: PTP1B1-301 mutant with point mutation in the α7 helix (protein, UniProt P18031 1-301, looked up, variant K292A)
# chain: B1 chain with A152Y, A153Y, K292A
# B13: PTP1BY153F: PTP1B1-301 mutant with mutation in the L11 loop (protein, UniProt P18031 1-301, looked up, variant Y153F)
# chain: B1 chain with A152Y, A153F
# B14: PTP1BS295A/E297A: PTP1B1-301 double mutant in the α7 helix (protein, UniProt P18031 1-301, looked up, variant S295A E297A)
# chain: B1 chain with A152Y, A153Y, S295A, E297A
# B15: PTP1BL195A: PTP1B1-301 mutant with mutation in the α3 helix (protein, UniProt P18031 1-301, looked up, variant L195A)
# chain: B1 chain with A152Y, A153Y, L195A
# B16: PTP1BE297A: PTP1B1-301 mutant with point mutation in the α7 helix (protein, UniProt P18031 1-301, looked up, variant E297A)
# chain: B1 chain with A152Y, A153Y, E297A
# B17: PTP1BY152F: PTP1B1-301 mutant with mutation in the L11 loop (protein, UniProt P18031 1-301, looked up, variant Y152F)
# chain: B1 chain with A152F, A153Y
# B18: PTP1BY152A: PTP1B1-301 mutant with mutation in the L11 loop (protein, UniProt P18031 1-301, looked up, variant Y152A)
# chain: B1 chain with A153Y
# B19: PTP1BY153A: PTP1B1-301 mutant with mutation in the L11 loop (protein, UniProt P18031 1-301, looked up, variant Y153A)
# chain: B1 chain with A152Y
# Tested on: PTP1B
# Assay: Phosphatase activity of PTP1B constructs against pNPP (enzyme assay)
# Format: biochemical, human
# Settings: FIG. 24, 25, 32B
# Procedure: Phosphatase activity of PTP1B against the general PTP/DUSP substrate, p-nitrophenyl phosphate (pNPP), was tested in 50 mM HEPES pH 7.5, 150 mM NaCl, 0.5 mM TCEP. 40 μl of enzyme at a 1.5 μM concentration was added to 60 μl of pNPP substrate resuspended in the reaction buffer. See, FIG. 25. The final concentrations of pNPP used in this experiment were […]. The enzyme was incubated with the substrate at 30° C. for 30 min, after which 100 μl of 1 M NaOH was added to a final concentration of 0.5 M NaOH to quench the reaction. Absorbance was measured at 405 nm and the final concentration of p-nitrophenol (pNP) was calculated using the molar extinction coefficient of 18000 M-1 cm-1. A control reaction in which substrate was incubated in the absence of enzyme was subtracted from all other experimental values. All experiments were performed in triplicate.
# Enzyme assays were performed at pH 7.5 with 0.15 μM PTP1B to compare the activities of wild-type PTP1B1-301 to mutants with mutations in the L11 loop: PTP1BY152A/F, PTP1BY153A/F, and PTP1BYAYA. See, FIG. 17. […] Ibid. […] Ibid. […] Ibid. […] Ibid. […] Ibid. […] Ibid.
# Enzyme assays were performed at pH 7.5 with 0.015 μM PTP1B to compare the activities of wild-type PTP1B1-301 to mutants with mutations in the α3 helix such as PTP1BN193A. See, FIG. 27. […] Ibid. […] Ibid. […] Ibid. […] Ibid. […] Ibid. […] Ibid.
# An enzyme assay was used to compare the activity of wild-type PTP1B1-301 to the activity of PTP1B1-284 P185G. See, FIG. 15. Enzyme assays were performed at pH 7.5 with 0.015 μM PTP1B to compare the activities of wild-type PTP1B1-301 to mutants with mutations in the α7 helix. See, FIG. 32A. In one embodiment, these point mutations were made in an amino acid sequence substantially similar to SEQ ID NO: 2.
row,Molecule,phosphatase activity compared with other constructs (in words)
1,B1,much lower

# Same assay, conditions: FIG. 24, 25, 32B; listed as PTP1BΔ7
row,Molecule,phosphatase activity compared with other constructs (in words)
1,B2,lack the activity exhibited by wild-type PTP1B1; also recorded: much lower

# Same assay, conditions: pNPP substrate, pH 7.5, 0.015 μM PTP1B (FIG. 27, 32A, 32B)
Molecule,Km [µM],kcat [s⁻¹]
B2,970 ± 100,1.7 ± 0.07
B3,460 ± 60,6.2 ± 0.3
B4,480 ± 100,6.3 ± 0.4
B5,370 ± 50,6.1 ± 0.3
B6,990 ± 150,4.5 ± 0.3
B7,390 ± 50,5.3 ± 0.3
B8,320 ± 40,4.2 ± 0.2
B9,800 ± 70,4.5 ± 0.1
B10,850 ± 70,4.9 ± 0.2
B11,730 ± 50,5.1 ± 0.1
B12,380 ± 50,6.1 ± 0.3
B13,620 ± 70,6.0 ± 0.2
B14,580 ± 130,2.6 ± 0.13
B15,290 ± 30,4.1 ± 0.1
B16,720 ± 120,4.6 ± 0.3

# Same assay, conditions: pNPP substrate, pH 7.5, 0.15 μM PTP1B (FIG. 17)
Molecule,Km [µM],kcat [s⁻¹]
B3,460 ± 60,6.2 ± 0.3
B1,450 ± 40,1.8 ± 0.05
B17,950 ± 40,3.4 ± 0.1
B18,960 ± 40,3.0 ± 0.06
B19,930 ± 180,3.6 ± 0.29
B13,900 ± 80,3.4 ± 0.3

# Tested on: not listed separately
# Assay: Circular dichroism thermal denaturation (melting temperature)
# Format: physicochemical
# Settings: CD spectropolarimetry, thermal denaturation at 208 nm, 2.5 μM protein
# Procedure: Circular dichroism (CD) spectropolarimetry was used to measure the melting temperatures of PTP1BYAYA, PTP1B1-301, and PTP1B1-284. CD measurements were performed on a Jasco J-815 CD spectropolarimeter. PTP1B samples were dialyzed at 4° C. into 10 mM sodium phosphate, pH 6.8, 150 mM NaCl. Samples were then diluted to a protein concentration of 2.5 μM and placed in a 0.2-cm glass cuvette. Wavelength scans were performed in the far-UV region from 260 to 195 nm at 25° C. at a speed of 20 nm/min. Thermal denaturation scans were performed at 208 nm from 25 to 90° C. at a scan speed of 1° C./min. Raw data were processed using the denatured protein analysis routine implemented in the SepctraAnalysis software and converted to mean residue molar ellipticity using the following equation: [θ]=θ/(10×C×1×n), where θ is ellipticity, C is the molar concentration, 1 is the cell path length in centimeters, and n is the number of residues. Plots are the average of three replicate scans.
row,Molecule,melting point (Tm) [°C]
1,B2,54.9
2,B3,55.46
3,B1,50.41
4,B18,53.89
5,B19,53.75

# Same assay, conditions: CD spectropolarimetry, thermal denaturation at 208 nm, 2.5 μM protein; listed as PTP1B1-284
row,Molecule,melting point (Tm) [°C]
1,B2,54.87

# Same assay, conditions: difference to PTP1B1-284
row,Molecule,melting temperature lower than PTP1B1-284
1,B1,about 4.5 °C

# Same assay, conditions: difference to PTP1B1-301
row,Molecule,melting temperature lower than for PTP1B1-301
1,B1,about 5 °C
